Results reported in the DeepSol protein solubility set.

experiment: soluble on expression in E. coli; label from the status in PepcDB or PDB records

Soluble on expression in E. coli, not soluble:
MGSDKIHHHHHHMGACENRWTVAKALRFPGDALQTILVAAPRGDLSTFFSIECTKRVHTGRCVTTANALKVQAFHTTDVTEQVRATPGWQQQYRQMSPGYFSGELRCLGLDGVEVYEERLNTRVEQFFRAPSGSLAFCFDRSENSLYLLNEQSRNIWITPENYQEVAVVFDQAFLARHGLDPQRLEGLFMVPLGSGQNALFGSWLSATLTRLGEEGCPLQGQALAEQLLEDCLFILDNASQRLQGVALGRRDEERAIMHRVSEWAADCPEETLNLLELADVAGVSLRQLQQAFKAFTGMPPAHWLRLRRLNGARRDLLRGGGVTVAEVAMRWSFWHLGRFSESYRQLFKEFPSETLKRCRV, MGSDKIHHHHHHMGFIEVQQQFMDYIRDPSLPLPEGIEPRRMKIYRELFFNNIAGFVSSAFPVLKSVYEDDQWQALVQQFFVSHDCKTPIFVEIAGEFLAFLQHEYQMTEDDPVFMLQLAHYEWLELCVAVAPDTPAAQSINTIELNLHRLCLAACAKVAQYAFDVQHISVDYQPIEPTAQANFFCVFRGADDEVAFLQLTPLSAQVLAYIEQMTHSQQGVTVDAIISWLSEHYPQMPNDTLLSGCLPLLQQLAQKGIVISSIES, MGSDKIHHHHHHMGIRNSKTFTSTDIATYYDVSEDHYMYFWDLNQSHSLHYGYWDASTKTFREALANINRVLAEKASITAGTRVLDAGCGVGGSSIWLAKNKQANVTGITVSKKQAARANTSAAAVNPGGTAVFDVQDYTNTPYHSESFDVVWAIESVCHAANKEDFIKEAYRLLKPGGQLIMADFFIVKDGNADDQRSIDAWGHGWAVPFFEKKDAFQHMLLKAGFNTADMIDSTEHIRRSAKRLYYAFFPGWIISKLYNLVNRRTTEFSKNNVYTAYYQYKTLKKELWKYYIVHAKK, MGSDKIHHHHHHMGMDFKVPDYMQELALASGQGLDQLSAVLARILDHPVLISSSAYKLFSSSSHYDFESFHIYSNQPRTGSDALFTCHILTDTMQSLALGRVVAPFGRTLGYIFMLTDDDSPDPTHFKPLLDYAASLCAVHLQNRLELKQEQSKFKNAFLYDLIYGNLKRNDEIIATGELWGWNFRRPHTIMVFLLPEPDFYTTEWHLMDVLSRIVEQNFIEIYYKNPAVILRQNELILFVPMQTDKPAVQTEELLVFADKILSQVQNTELKGLAACGVGQAYSEATVLFRSYQEAKVALEMGKLLGIPIPFFRDLGLERILYKHDLQDLKEYYLHVLGELHKQDDQDSSLVTILESFAENQFDVGKTAKALFMHPNTLRYRLNKIENILGKPLTDNHARLDIMAAFKIKRLHTIETLLA, MGSDKIHHHHHHMGNTQWQRLLQIEIHDKNGKNRVLLRADSGRLDRLEIHFTAPFSDSPNPSEVSVTIYNLNKKSIDFIKKGNPVYIHAGYAGTSNGVITSGTIAEVKPSVLNGVDRATTFTFLEGKDYSEQKEVNITFNNGTDAHTIINRVAREANIPLSEIKLKNNKIYGSGYTADGQAMMVLEEISKACDTSLYFKRGQLVIKNFRDGNKERYRLSPETGLINQPTKVESHDYTGWSVECLLQHKITTGTAVYIDSKNVKGNFYVKNGQHSYDGSRFVTTCEVVT, MGSDKIHHHHHHMGNVASSEVINQLEAWYQAIKRLQLAEATTIKHEVMQAIDGMDQDRKVFLYYHLIDSRYHLLIHQWDYAGAILKGLKAQVELKETDKLLRYYYYFFSGLYEFHTKQYIEAIHFYRLAESLLKDIPDDIEQAEFNYQLAVAYYEIDQHFVSMDHAEKALELYLQNDQYKNRVATTQMIVAANQLDLYQFASAEALYKNAIELASDVQDFFVKGMGYYNLGVCYDRQDKLDLARECFESALYVDLPKSQYQGVMVGTKYMLARVLFKQGILEEGMHWFEEAKALADEMKDASYQAKLSTIHSIYKERDEVEIDDGLRVLKEGKLWSDVFELAINAARHFQEKEDYSLAAKYFDEGLVAKDQIKAWKEDTAST, MGSDKIHHHHHHMGPVGYTTLDTAVVERRLGVERLGYRVVGEGYVYRHKYKAGGQRVSTLIGRPEPLDPARVLRVLSAGAYNVVLISPLHGEDDGGLASYIHNNFSAITAVDLQGYYRGYASVWTPPTARIGSLAHISSDDASDPPREPMANIIVYTRGEAGGEVLSPSGSLTIPPPPKLVEDPTGAGDIFTMVFAIMLFRGAPPGPAAEEAAAKTPEILESIRGDEGFQYSVPHSPSEAFWI, MGSDKIHHHHHHMGSAAQFRRWIRPSARLCNAPFIRATVQVHWRNLYLLSRRSAPRRFHADQEKDMTPRSIIAAGALFAAVATAPAAWASSTYMGALTEAEVLAAQKAWGEALVAISREHEAGGQAKAKALASTVLDKAYGYNLGPVLFKPTLTMAPQTFRTTKDGALAYFVGGDPNYPNDKGFALQGWRSVAIKNAAIQIHGDVATTTGNVMITDKNGNVTTVDKTWAFKKTDDGAIRIVVHHSSLPYTAK, MGSDKIHHHHHHMGSGSVIWRLLPPAQGDPTTELAAGAAMLAGLKETNCPAIRWYAAGSRPALVIGSGQKLSDVDHTALRQQGVTLHRRSSGGTAVLFVPGLLMQDIALPLDHPLYHPDVSESYRWLGDVWQATLAQFGIHTSLIDIAAARADRQTLDPLIARACFGGQSPYEVLVAGRKLVGFAQIRRREGVLFQVGLYTHWPGRQLATLLAMNEAERTIFGERLADRVTDLVTVCESPPDIHQIAAAFAMVLRQRYEVSITAADWTEAEREAMIAAQARFAPLRLEG, MGSDKIHHHHHHMGSKKLTVGSDSHRLSKSSFSSNKSSHSATKDQPIDTDDIDEDDESGHNIILNIISQLRPGCDLTRITLPTFILEKKSMLERVTNQLQFPEFLLQAHSEKDPLKRFLYVMKWYLAGWHIAPKAVKKPLNPVLGEYFTAYWDLPNKQQAYYISEQTSHHPPECAYFYMIPESSIRVDGVVIPKSRFLGNSSAAMMDGSTVLQFLDIKDGNGKPEKYVLTQPNVYVRGILFGKMRIELGDHMIIKSPNFQADIEFKTKGYVFGTYDAIEGTVKDYDGNAYYEISGKWNDVMYLKDLKQPRSSPKVFLDTHKESPLRPKVRPLSEQGEYESRKLWKKVTDALAVRNHPVATEEKFQIEDHQRQLAKKRIEDGVEFHPKLFRRSKPGEDLDYCIYKNIPVDEDPEKQIRSILQIAPILPGQQFTDKFFIPAFEKIKSQKKMIENEKQNPAKQ, MGSDKIHHHHHHMGSTFMGIETGRRALTTNQWALQSTGNNIANAGTAGFSRQRLVMATTEQLSMAIGTGKMGQIGTGVRGEILERVRDVMLDKQYRDEATKTAYYGTKEAAFGRMEDIINEPSDTGLAKAFDGFWESLQTLSTNPQDSGARSVVRQKAETLTQTFNYMSKSLSQVKEDLKSEIDVSTKKVNDLFKKIHNINAEIHTVEPLGVLPNALYDERDRYMDELAQYVDFEKVSVDAEAITQGKLGNATKTAEGRIDILVKLPNGNKLRAVDSDVAQAGILSFTTNDKGLYTGFETNSQTISFDAAGGGFANGRIAGLLEMYGQIKNGQPTGEFVKMQSNLDEMATTFATAFNAAHAANFKKDKTNGTDQFFVATSGSISAATIAVGQDIKGSLDNIATSTDGNIGDSAGALKLAQMKTTSLLFATSVTTTTIGSFYQNVIGDMGVATDQVGRLGQSSAVLMDSAEQRRMSVSAVSIDEEMTMMIQYQHAYNAAARNITTVDEMLDKIINGMGIVGR, MGSDKIHHHHHHMGVQETKIYPINTGWLEADLGTYIFWKGPAGQKIWNPVYCHYVDTGTHKILIDTGLCDEERATKYHHKCDKRGCLQVHEHLEQKLGVHPDEIDAVVFTHLHWDHVQNMKEFKNARYIAPKAEIEMAFNPLPLYYRTYESGYLGIEPAYTGCVFEAVEDECEVLPGITMFHTPGHSVGHMAVTVATSAGDIVVAGDAIFQERNMEPNEAEGWRYWVPARFVNSYEGWKSVEELDKRADYILACHDKVANARSNVFPYEGMPIRKRRQHIPGFKFYFGDMPAGATDKAAPALTADEAKEYLANLVPPTPD, MGSDKIHHHHHHMGVSKRTVMRYQTCREPGSLSASDKFKSVEAALESHVKEEEARYSGKGRGDGSLWHHLVRVARLAEKLGRSEGLDPATCRLAGLFHDAGKFSGGTYHQDDRPEEERSVDILVELAGKHDLDRDIVDRIARSFQQLYRDGENQTPLTRVLFDADNLDKLGFLGIANYFIKTGLRGKGVSANMLYQLTAELTYARHAADCMATPAGRELALRKAPETYRFILDLLQSLRDDGIFDFKVEEVMFDQLLLDVVSPYSCECRGTLERRLWNVRGIKCLEIHLEHSCPRCEARHEIRFCTPKLRTQGEKNTGDLFRTSQLDIRQAADSYF, MGSDKIHHHHHHMGYLKTMVDVMTTEMNAIRCLIDEAGIEYESIVSEIANCEGKVIFMGVGKSAHIGKKLAATFASTGTPSFFVHATEAVHGDLGMIESKDITILISNSGNSMEVVNCIKYIKAIGSKTIAFTSNRNSVLAKECDYALIYPAKDEADHLNLAPTTSSTITLVLGDSIACALSKSSNFGSSDFYKYHPGGSLGEKLKTANNG, MGSDKIHHHHHHMHHWESLVGEQAIPFFRWRWLAALEDSSSISAKHGWQPLHLALWRDDMPVAVAPLYLKGHSYGEFVFDQAFARLAGDLGLGYYPKLLGMSPVSPVQGYRFYVAPGENEAELTVLMLETIDAFARRNQILSCNFLYVDPHWRPLAEAAGCATWLNQQSLWSADGQSDFSAYLNSFNANQRRNIKRERKAVQQAGLTVSALTGVELDVQLLRCMHGFYEQHCARWGPWGSKYLSEAFFEALADSSLRDQVVLFSAHRVSPREPVAMSLCIQDGQMLWGRYWGSKEEIDCLHFEVCYYAPIAWALENGLENFDPGAGGQHKRRRGFVAKPHASLHRWYEPRMDALIRGWLRKVNPLMLEEIESANADLPFRVEPAPQLIVE, MGSDKIHHHHHHMHISNMDGLDILSLKILVSLYENKSATYVSKALDIPAPKISRSLKNLREIFGDELFIRRKYGLFPNEFATHLYPIAKEAIECTDKFHKARAANANLVKTHIEIAAPGLIAYAFPKALMQAIKDEQKLMHINITPWSMHTTQDIINGDTTLGICCNKSTADVAAFGDKLLTTTLQSMDKVYLLASRNHPIFKREITLETIAEYPYVNTDLGNPSSKLSPYQEFCLKSNIKLNTEITITSISSLFEYLGESQALSLLPYRVVYEMVSDVAELHTCQLSQLEAERLYAHAEAPTIFLVQKNQPNKVNDDLVWLSGQIKKIVDHII, MGSDKIHHHHHHMHPKNAWYVACTADEVADKPLGRQICNEKMVFYRDQNQQVVAVEDFCPHRGAPLSLGYVENGQLVCGYHGLVMGGDGKTASMPGQRVRGFPCNKTFAAIERYGFIWVWPGEREKADPALIHHLEWAVSDEWAYGGGLFHIQCDYRLMIDNLMDLTHETYVHASSIGQKEIDEAPPVTTVEGEEVITARHMENIMPPPFWKMALRGNNLADDVPVDRWQICRFTPPSHVLIEVGVAHAGKGGYHAPHEFKASSIVVDFITPETDTSIWYFWGMARNFKPADEQLTATIREGQHKIFSEDLEMLERQQLNLLQHPHRNLLKLNIDAGGVQSRKILERLIAAEQADTADQIPVAAVK, MGSDKIHHHHHHMHQLKREALLREAIAAFNQKGFHATSLGDIATSLGVTKAALYHYFPNKHALLFEAFAEALRVGFEAIEAAERHGGSGLDKLQMAVREYLQVTLSEMSRCVIITEEHALEPQDRAKIVEQRDRFEAKLRGFVREGIEDGSVIPCDPKLAIFSIFGAVNWVPKWFSDSGNWSNKQLAKGMSELLCRAVARHPAEAFAPDIGKMRVE
